Measured values: the DeepSol protein solubility set

Assay: soluble on expression in E. coli; label from the status in PepcDB or PDB records
For “MGSDKIHHHHHHMIQYKRCSEVSIDLVYEAFRDGFSDYIIKMEVSKEDFIKRFFGAEGNSLKHSFVALDGNKSVGVILGGIKDYENIKTMRCGTLAVHPNYRGIGVSQKLFELHKDEAIQNGCKQLFLEVIVGNDRAIRFYNKLGYEKVYDLSYYNLKDMTKIIHKECKGIEVKQLEFPAFKVEIQKWLHFHINWQNDMDYIEKTNHTFYGAYVDNDLKGSICINEQGKISFIFIDKEYRNRGIGSKLLQVARDELNLESLLISFPNNSLLEGFLKKTGFEKNSLAQYEMYVLL”, the “soluble on expression in E. coli” value was “not soluble”.
In the case of “MRIVEVYSHLNGLEYIQVHLPHIWEEIQEIIVSIDAEACRTKESKEKTKQGQILYSPVALNEAFKEKLEAKGWKESRTNYYVTADPKLIRETLSLEPEEQKKVIEAAGKEALKSYNQTDFVKDRVAIEVQFGKYSFVAYDLFVKHMAFYVSDKIDVGVEILPMKELSKEMSSGISYYEGELYNVIRQGRGVPAVPLVLIGIAP”, the “soluble on expression in E. coli” value is reported as “soluble”.
For “MSLTQAQGAQQYVNINPPMPSDTPGKIEVLEFFAYTCPHCAAIEPMVEDWAKTAPQDVVLKQVPIAFNAGMKPLQQLYYTLQALERPDLHPKVFTAIHTERKRLFDKKAMGEWAASQGVDRAKFDSVFDSFSVQTQVQRASQLAEAAHIDGTPAFAVGGRYMTSPVLAGNDYAGALKVVDQLIVQSREGHHHHHH”, the “soluble on expression in E. coli” value was “soluble”.
For “YLASDGKTIIMVGRNNLQNEELTFKIAKKGELWFHAKDIPGSHVVIKDNLNPTDEVKTDAAELAAYYSKARLSNLVQVDMIDVKKLNK”, the “soluble on expression in E. coli” value was “not soluble”.
For “GSSAKRKQEEKHLKMLRDMTGLPHNRKCFDCDQRGPTYVNMTVGSFVCTSCSGSLRGLNPPHRVKSISMTTFTQQEIEFLQKHGNEVCKQIWLGLFDDRSSAIPDFRDPQKVKEFLQEKYEKKRWYVPPEQAKVVASVHA”, the “soluble on expression in E. coli” value was “soluble”.
For “MNPFQKIKSAVNKRQRFFINRTLQRKLTNQGMTVISANCVGAFILHDLHQPFNSPFVNLYLSPQDFLRYLQNIDFYLTQPLTFVQTEKSYPVGKLADLEIHFMHYHSEQEANEKWQLRTSRMKLDNLFIMMTDRDGVTEKDIQLFDQLPFKNKVIFTHKPYPAFKSAYYIKGFEKQNQVGDIFEFSGWNGKKYYDQFDYVKWFNHA”, the “soluble on expression in E. coli” value was “not soluble”.
In the case of “DLHNMLLTRNQELDVAYQTIRQDLESAGDLMRQLLPVEQQIGATKLSYSYLPCSQLGGDMLGYAALDEQHVAFYVFDVSGHGISSALMSFSIQKTLSRSCGPESVTTDLVEGEYVVSEPNVVVERLNLRYQQTPDSQLYFTIVYAVLNTQTGKLRYCTAGHPKFLWRHQSEATIDMVGDENFIVGALAPMQYKGGEITLEPNDSIWCFSDGVVEARYENEFFSVNRLIANVQSVSGLPFEAQVSSVVESIKRWQVKEELDDDLTLLQLQWFGPNTSTCEGEDD”, the “soluble on expression in E. coli” value is reported as “not soluble”.
For “MKMELKEGGKIFFRWFRKTFGEEVTDEGIIHRLEPPNLIEFSWNTYEDGFRSRVKMEFFPSSYNGTWVQVEDHTIVLNEEDMKIKLECAVGWGEMLTLAKIWIEYGISTLENP”, the “soluble on expression in E. coli” value was “not soluble”.
With “MGSDKIHHHHHHAQETLRENNGEPTLVERLSNGEIKINSAEMNFQLFTSANAEFVGNELDGMNFKLNRVRLEIKGDVGKWLGYHYRQSFNKYSDPYSLDNLSSSLELAYVNLKARPNLNFTIGKQFVNFGGYEYYVNSIRVREFSEFNNLLTAYQAGISGNWQVSPDHELCFQIVNNRNGNDEDIYPTGLPEGTAKAKIPFMYTVNWNSYYLDKSLQLRYATAVGQQTRKRYSYYFTCGNTYEKGPLLTYLDVMYTRQGIDQHGVVSRLPGTPHTAMNTEYLSIIGDVDYRVHPQWNVYVKGAYETARVYKGNGDFRKGMYRRSWNAQSSVEFFPFKQLDLFVFVLYTYRGVILEKAATRMGAIEPDTHRISLGLVYSIPVF” the “soluble on expression in E. coli” value was “not soluble”.
With “MGCEPKRDCGCCQNSICEFLQSLEPYTKVESIIIAGNEIAVSYFLSFNKKTGIVSFVQEDNEVIFVDCSKIDAIRIGKVCSCKTKVKYIEEDFSLLGNVCPHCLTEGSTIFFDFNNPELNVSFQATTINPPRCTEFTDDLGNVVKQITIVGEAKVSRDFVQVPELVGFRLLLSHLAGDPLNYGLLFINFPDTIFIFILASSGYLSISNCLKIEGGTGDAEIEEMKKMIEDDVNTYKSVVKLTKVYKNGETESFIYKNEL” the “soluble on expression in E. coli” value was “not soluble”.
With “MSLKRVVIIGMGFGGIRAARVLAGKGLDVVLVDRNNYHLFQPLLYQVGTAGLEQESIAYPVRAMAREWRGTRFHLAEVAGVDFPAREVVTGNGRIPYDYLIIGAGSVTNYFGLESVERHAFDLKELVDGERLRNHILTAFERAVVEPDPAKRRALMTFVIVGGGPTGVEFAGALMELVRYVLAKDYPELSVQAARVVLVEAFDRLLAAMPQELQVYTLEKLRAMGVEVLFNARVEGHHHHHH” the “soluble on expression in E. coli” value was “not soluble”.
With “MGSDKIHHHHHHMKIGFLSRWGATCGVGMHAEILAREFIRMGHEVVVFAPTEESASKEVKYYKRTEAQDPEFVKREIYTEVDNVTEEGWVKEEEILKENLDLLIIETFWRVPVKPLTRLIEKLKIPVISVFHEANIFKAREVVKLPCDKIVVFDRRFYDEILEFYEIPREKVEVISYPVMKPYDAEPERPVSEDKFLFFSFGRQPVEEYCDFLNALKKLRKRFDNVHYWIIRSDGRVDYEAEWITQWQKRPTVEKLYSYLKGSNVHLLPKGNTPNVVVSSTLYQIIASETPIVIRDSRFVETIETDVYGFGPIVKYRNIHDLVHKLELLMLDRELVEDIKKEVRVFVEKYGGDKIAQEFLDLAKTITK” the “soluble on expression in E. coli” value was “not soluble”.
In the case of “MPTLRPESPEEVQEAVRAYPRLRAQGGGTKPALSTPKEGEVLLDLSRLRGLLAYEPEEFVFTAFAGTPIAEVEEALRAHGQYLPFDPPLAGKGATLGGTVAAGLSGPLRHRYGGLRDFLLGVRFVDGEGKVVRGGGKVVKNAAGFPFHRLMVGALGAFGVMVELSFKVFPRPRTTRTLRVRREGLEEALADLERLRLLPLDLLALDFIPPATLELRLGGFERSVEARLKRLQDLLGEGEVLAEDEAHWEAVRDLGFLEGSPVWVKVPAKPHLIPRLEALPLGPRRYLDGGEVLYAGTTEEGLKALREAGLPHLVLRGAEAPLFPEPQGAFFAGVKKALDPKGRFPLG”, the “soluble on expression in E. coli” value is reported as “soluble”.
In the case of “MSLTTIDPRSELVDGRRRAGARVDAVGAAALLSAAARVGVVCHVHPDADTIGAGLALALVLDGCGKRVEVSFAAPATLPESLRSLPGCHLLVRPEVMRRDVDLVVTVDIPSVDRLGALGDLTDSGRELLVIDHHASNDLFGTANFIDPSADSTTTMVAEILDAWGKPIDPRVAHCIYAGLATDTGSFRWASVRGYRLAARLVEIGVDNATVSRTLMDSHPFTWLPLLSRVLGSAQLVSEAVGGRGLVYVVVDNREWVAARSEEVESIVDIVRTTQQAEVAAVFKEVEPHRWSVSMRAKTVNLAAVASGFGGGGHRLAAGYTTTGSIDDAVASLRAALGEGHHHHHH”, the “soluble on expression in E. coli” value is reported as “soluble”.
For “MVGRKRRASMSITDGNGSLSDTVRPGDWVVVAELATPAFSVKNPESYQVASPLPLPLPSTLLGGLMRGASLLGSCTGGIASQSCIKKTGRIVKAAAPLSKPGQILGVEWEVVLRRLRKVLEPDSEEGSTRENRGNRVLDELSRISDALLRGYITPYNPVYAVFVARGRDNANRIEKALWYIDRLGDSESLVSARPVGRCQLAEFRSKSVNTPVALDSAVGGSFTVVYAPARAGRTGRTRRSEAIAIAMPVKKEAVERGYVLVYSEIEVEGSVYGCSVEGIDGRINVAVHESFHEVSGYGIWMPA”, the “soluble on expression in E. coli” value was “not soluble”.
In the case of “MRDTLVLNASFEPLSTVTLNRAVILVLQDKAVVEQAHPELRMRGAALDIPVPRVIRLCRYVRVPFRRQAPWSRRGVLVRDRHRCAYCGRRATTVDHVVPRAQGGQDSWLNTVASCAEDNHRKAARTPEQAGMPLLRQPFEPTPADAMLLALGQDDFESLPEWLAQPAALEHHHHHH”, the “soluble on expression in E. coli” value is reported as “not soluble”.
For “MMDEKLNFSYLFGSNAPYIEELYEAFLENPDAVDEKWKQYFTDLSKQPGTVAVDVAHTPIRESFVTLAKKKIASAVAGGADEAMLKKQVSVLRLISAYRIQGVGAAQLDPLKRIPPRDIEALDPKFHGLSDADMALQFNMGEGDFANRGKLPLSQIISNLKQTYCGHIALEYIYIPNTEERRWVRNYFESVLSTPHYNADQKRRILKEMTAAETLERYLHTKYVGQKRFGVEGGESAIAGLNYLIQNAGKDGVEEVIIGMAHRGRLNVLVNILGKKPGDLFAEFEGRAEIKLPSGDVKYHMGFSSDIATPHGPMHVSLAFNPSHLEIVNPVVEGSARAKQKRLGENGRDKVLPVLIHGDSAFIGLGVNQATFNLSKTRGYTTGGTVHIVINNQIGFTTSDIRDTRSTVHCTDIAKMVSAPVIHVNGDDPERVCFAIQAALDYRKKFHKDIVIDVVCYRKWGHNEGDDPTLTQPMMYKKVSQHPGARALYTEQLIAEGVVTQAEADGYIQAYRDALDKGEHVEQTTLSNFQRTQIDWSKYQGKDWREHIETGLPAADIERLTEKFTAVPEGFALHPTAKRVIEARKAMASGKQAIDWGMAETLAYASLVTKGHGVRISGEDSGRGTFSHRHAVLHDQKREKWDDGTYVPLRHMGEGMGEFLVIDSILNEEAVMAFEYGFACSAPDKLTIWEAQFGDFANGAQVTIDQFLSSGETKWGRLCGLTTILPHGYDGQGPEHSSARVERWLQLCSENNMQVIMPSEASQMFHLLQRQVLGSYRKPLVIFMSKRLLRFKGAMSPLENFTEGSTFRPVIGDTAERASNDSVKRVVLCAGQVYYDLEAGRAERKLEDDVAIVRVEQLYPFPYDEVKAELAKYPNAKSVVWAQEEPKNQGAFYQIRHRIEDVISEEQKLSYAGRPSSASPAVGYSSKHIAQLKQLVEDALAL”, the “soluble on expression in E. coli” value was “not soluble”.
In the case of “MLLMKTASKTNNSVRRNMNTHSAISELIAPWLELTDPKLAALVITHLELDSRLIKSGDTFVAIQGHAVDGRQFIDKAIAQGANLVLAEADAQHLNGWVEYRAGVPVIYLAELGQHLSELAGRLYGGHHNQLIGVTGTNGKTTITQLIAQWLELLGHKAAVMGTTGNGFLNALEPAANTTGNALQIQATLRDLAERGAQYTALETSSHGLVQGRVKKLHFVAGVFSNLSRDHLDYHGTMEAYAAAKFSLFSEHACQNAIINVDDAVGAQWVKQLPQAIGVSLVTKPNTAQAIWAREVAYAESGITLNFESSWGEGELHAPLIGEFNACNLLLALATLLSLGFEKSALLATAPKLRPVLGRMELFQREQKAKMVVDYAHTPDALEKALRALRVHCAGQLWAIVGCGGDRDRGKRPMMAAIAEQFADRVILTDDNPRSESPQAIVADMVAGLTYPERAHIEHHRFQAASYALQHAGAQDIILLAGKGHEDYQVLANETIHYSDRETAQQLLELQP”, the “soluble on expression in E. coli” value is reported as “not soluble”.
With “MGSDKIHHHHHHMGVKSLVPQELIEKIKLISPGTELRKALDDIINANFGALIFLVDDPKKYEDVIQGGFWLDTDFSAEKLYELSKMDGAIVLSEDITKIYYANVHLVPDPTIPTGETGTRHRTAERLAKQTGKVVIAVSRRRNIISLYYKNYKYVVNQVDFLISKVTQAISTLEKYKDNFNKLLSELEVLELENRVTLADVVRTLAKGFELLRIVEEIRPYIVELGEEGRLARMQLRELTEDVDDLLVLLIMDYSSEEVEEETAQNILQDFITRREPSPISISRVLGYDVQQAAQLDDVLVSARGYRLLKTVARIPLSIGYNVVRMFKTLDQISKASVEDLKKVEGIGEKRARAISESISSLKHRKTSE” the “soluble on expression in E. coli” value was “not soluble”.
In the case of “MNKHERLDEIAKLVNKKGTIRTNEIVEGLNVSDMTVRRDLIELENKGILTKIHGGARSNSTFQYKEISHKEKHTRQIAEKRYIARKAASLIEDGDTLFFGPGTTVELLAEEVNHHTLTIITNCLPVYKILLEKQTAHFRVYLIGGEMRHITEAFVGEMANAMLEKLRFSKMFFSSNAVNKGAVMTSTLDEAYTQQLALSNSIEKYLLIDHTKVGKEDFTSFCQLNELTAVVMDYEDEEKVETIKTYIEVVDLEHHHHHH”, the “soluble on expression in E. coli” value is reported as “soluble”.
